Consider 10 substances from US20150018530A1.

In test [1] the target is EGF receptor on A431 cells (UniProt P00533). The experiment in a line: flow cytometry on A431 cells; concentration of mAb108 used in the competition assay. (In general: Flow cytometry measures light scatter and fluorescence of single cells or particles in a stream.)
Test [2] shares this target. In words: Flow cytometry binding curve of the Fab on A431 cells (binding conditions 'as described previously'); y axis Median rises from about 20 to about 790.
Test [3] shares this target. The experiment in a line: competition flow cytometry on A431 cells; scFv pre-bound, mAb108 at 7.5 nM as competitor, APC anti-mouse detection.
For test [4] the target is unchanged. The experiment in a line: Competition flow cytometry on A431 cells: cells incubated with the scFv at varied concentration and washed, then mAb108 at 7.5 nM, detected with APC-labelled anti-mouse antibody; y axis Median.
The target is the same in test [5]. In words: flow cytometry on A431 cells; binding conditions 'as described previously' (competition with mAb108).

wild type scFv-108 (periplasmic), sequence (scFv): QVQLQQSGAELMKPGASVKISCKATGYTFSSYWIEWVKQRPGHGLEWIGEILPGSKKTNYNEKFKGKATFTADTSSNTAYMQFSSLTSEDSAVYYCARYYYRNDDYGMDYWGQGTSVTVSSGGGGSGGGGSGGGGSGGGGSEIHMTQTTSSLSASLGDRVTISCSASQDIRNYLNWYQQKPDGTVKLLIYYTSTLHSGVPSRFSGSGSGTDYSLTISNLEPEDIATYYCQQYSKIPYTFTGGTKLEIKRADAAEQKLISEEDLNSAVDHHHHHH

As to “EGFR-specific monoclonal antibody mAb108 (ATCC #HB 9764)”, the EC80 (as a rule, the concentration needed for an effect of 80%) in test [1] is 7.5 nM.
Take “Fab-108 Thr204 pAF (from UniProt P01834 1-107)”: the EC50 (commonly the concentration at which the effect is half-maximal) in test [2] worked out at 6.2 nM.
scFv-108 His144pAF: the IC50 relative to the wild type scFv in test [3] was 2.6 x.
Still for that read-out and setting: as for scFv-108 Leu156pAF, the figure is 1.8 x; as for scFv-108 Ser131pAF, 1.3 x.
As for scFv-108 Ser136pAF, in test [4], the IC50 (commonly the point on the concentration scale where inhibition reaches its midpoint) came out at 13.1 nM. The substance further registered an IC50 relative to the wild type scFv in test [3] of 1.6 x.
In the same order, the values of scFv-108 Ser136pAF-5K PEG are 51 nM and 6.3 x.
On to scFv-108 Ser193pAF, for which, in test [3], the IC50 relative to the wild type scFv was found to be 1.8 x.
As to “wild type Fab-108 (from UniProt P01834 1-107)”, the EC50 in test [5] is 3 nM. This lies in the single-digit nanomolar range.
Substance wild type scFv-108 (periplasmic) displayed an IC50 in test [3] of 8.1 nM.
